Like-named read-outs stand apart in the source and are kept apart here. Where a SMILES comes first, the peptide text is derived from it. Bridges are numbered along the chain shown (N, C = ends). Where no end group is shown, it is not given here. Side-chain parts run from the residue outwards. [ ]: non-standard residue; d: D form. Phe(4-NH2) = Nc1ccc(C[C@H](N)C(=O)O)cc1; Aib = CC(C)(N)C(=O)O; Sar = CNCC(=O)O
Legend:
IR-A = IR-A (Homo sapiens, UniProt P06213); assay: In vitro activity of pegylated analogs relative to native insulin at IR-A
IR-B = IR-B (Homo sapiens, UniProt P06213); assay: In vitro activity of pegylated analogs relative to native insulin at IR-B
blood glucose = assay: Comparative insulin tolerance test / insulin dose titration in mice
insulin receptor = settings: background statement; cited from earlier work
[1] = molecular target: T1, insulin subtype B receptor (IR-B) (Homo sapiens, UniProt P06213); assay: Insulin subtype B receptor binding (competition binding); parameters: expressed in transfected cells; plasma membrane fragments; settings: Table 15
[2] = molecular target: T2, insulin subtype A receptor (IR-A) (Homo sapiens, UniProt P06213); assay: Insulin subtype A receptor phosphorylation, receptor transfected HEK293 cells; format: cell-based
T2 construct: expressed in transfected cells; host or cells: HEK293
Procedure: (§1) Color development was stopped 5 min later by adding 0.05 ml 1 N HCl. Absorbance at 450 nm was measured on Titertek Multiscan MCC340 (ThermoFisher, Pittsburgh, Pa.). […]

[3] = molecular target: T1, insulin subtype B receptor (IR-B); assay: Insulin subtype B receptor phosphorylation, receptor transfected HEK293 cells; format: cell-based; parameters: expressed in transfected cells; host or cells: HEK293
Procedure: as §1

IGF-1 receptor [4] = molecular target: T3, IGF-1 receptor (Homo sapiens, UniProt P08069); assay: IGF-1 receptor phosphorylation assay, receptor transfected HEK293 cells; format: cell-based; parameters: expressed in transfected cells; host or cells: HEK293; settings: Table 15; read-out: Receptor Phosphorylation IGF-IR EC50
Procedure: Color development was stopped 5 min later by adding 0.05 ml 1 N HCl. Absorbance at 450 nm was measured on Titertek Multiscan MCC340 (ThermoFisher, Pittsburgh, Pa.).

IGF-1 receptor [5] = molecular target: T3, IGF-1 receptor; assay: IGF-1 receptor binding assay (competition, scintillation proximity); parameters: expressed in transfected cells; plasma membrane fragments; settings: Table 15; read-out: Receptor Binding IGR-1R EC50
[6] = tested on: human mammary epithelial cells (HMEC); assay: Human mammary epithelial cells proliferation ([14C]-thymidine); format: cell-based; settings: Table 15; read-out: Proliferation HMEC EC50
Procedure: The plate was incubated 4 h at 37° C., 5% CO2 and 90% humidity.

[7] = Table 15, read-out: Receptor Phosphorylation IR-A- EC50
[8] = read-out: EC50 values (in nM), phosphorylation at the insulin subtype A receptor, experiment of FIG. 18A
[9] = Table 15, read-out: Receptor Phosphorylation IR-B EC50
[10] = read-out: EC50 values (in nM), phosphorylation at the insulin subtype B receptor, experiment of FIG. 18B

Molecule | Half Life (hr) 20% Plasma/PBS | blood glucose lowering in insulin tolerance test (result in words) (blood glucose) | EC50 [1] | EC50 [2, 7] | EC50 [2, 8] | EC50 [3, 9] | EC50 [3, 10] | EC50 (IGF-1 receptor [4]) | EC50 (IGF-1 receptor [5]) | EC50 [6] | other results
CC[C@H](C)[C@H](NC(=O)CN)C(=O)N[C@H](C(=O)N[C@@H](CC(=O)O)C(=O)N[C@@H](CCC(=O)O)C(=O)N[C@@H](C)C(=O)N[C@@H](C)C(=O)N[C@@H](Cc1ccccc1)C(=O)N[C@@H](CCCNC(=N)N)C(=O)N[C@@H](CO)C(=O)N[C@@H](C)C(=O)N[C@@H](CC(=O)O)C(=O)N[C@@H](CC(C)C)C(=O)N[C@@H](CCCNC(=N)N)C(=O)N[C@@H](CCCNC(=N)N)C(=O)N[C@@H](CC(C)C)C(=O)N[C@@H](CCC(=O)O)C(=O)N[C@@H](CCSC)C(=O)N[C@@H](Cc1ccc(NC(=O)[C@@H]2CCCN2C(=O)C(C)(C)N)cc1)C(=O)N[C@@H](C)C(=O)N[C@@H](C)C(N)=O)C(C)C [AiB Pro] (H-GIVDEAAFRSADLRRLEM[Phe(4-NH2)]([Pro-Aib])AA-NH2) | 2.1 h |  |  |  |  |  |  |  |  |  | 
CC[C@H](C)[C@H](NC(=O)CN)C(=O)N[C@H](C(=O)N[C@@H](CC(=O)O)C(=O)N[C@@H](CCC(=O)O)C(=O)N[C@@H](C)C(=O)N[C@@H](C)C(=O)N[C@@H](Cc1ccccc1)C(=O)N[C@@H](CCCNC(=N)N)C(=O)N[C@@H](CO)C(=O)N[C@@H](C)C(=O)N[C@@H](CC(=O)O)C(=O)N[C@@H](CC(C)C)C(=O)N[C@@H](CCCNC(=N)N)C(=O)N[C@@H](CCCNC(=N)N)C(=O)N[C@@H](CC(C)C)C(=O)N[C@@H](CCC(=O)O)C(=O)N[C@@H](CCSC)C(=O)N[C@@H](Cc1ccc(NC(=O)[C@H]2CCCN2C(=O)C(C)(C)N)cc1)C(=O)N[C@@H](C)C(=O)N[C@@H](C)C(N)=O)C(C)C [AiB dPro] (H-GIVDEAAFRSADLRRLEM[Phe(4-NH2)]([dP-Aib])AA-NH2) | 2.2 h |  |  |  |  |  |  |  |  |  | 
CC[C@H](C)[C@H](NC(=O)CN)C(=O)N[C@H](C(=O)N[C@@H](CC(=O)O)C(=O)N[C@@H](CCC(=O)O)C(=O)N[C@@H](C)C(=O)N[C@@H](C)C(=O)N[C@@H](Cc1ccccc1)C(=O)N[C@@H](CCCNC(=N)N)C(=O)N[C@@H](CO)C(=O)N[C@@H](C)C(=O)N[C@@H](CC(=O)O)C(=O)N[C@@H](CC(C)C)C(=O)N[C@@H](CCCNC(=N)N)C(=O)N[C@@H](CCCNC(=N)N)C(=O)N[C@@H](CC(C)C)C(=O)N[C@@H](CCC(=O)O)C(=O)N[C@@H](CCSC)C(=O)N[C@@H](Cc1ccc(NC(=O)CN(C)C(=O)[C@@H](N)CCCCN)cc1)C(=O)N[C@@H](C)C(=O)N[C@@H](C)C(N)=O)C(C)C [K Sar] (H-GIVDEAAFRSADLRRLEM[Phe(4-NH2)]([Sar-Lys])AA-NH2) | 5.9 h |  |  |  |  |  |  |  |  |  | 
MIU-58: dimer of two single chain analogs B1(H5,Y16,L17)25-C1-A1(N18,21) linked head to head via 20 kDa PEG (GPEHLCGAELVDALYLVCGDRGFYGYGSSSRRAPQTGIVDECCFRSCDLRRLENYCN; disulfide 18-56, 42-47, 6-43; also: dimer of two chains joined head to head (B1 N-termini) via 20 kDa PEG) |  | less potent than the parent compound, but is still active |  |  |  |  |  |  |  |  | % Insulin Activity IR-A (IR-A): 19.7%; % Insulin Activity IR-B (IR-B): 5.8%
proinsulin: larger linear precursor of insulin with 35-residue connecting peptide |  |  |  |  |  |  |  |  |  |  | potency relative to native insulin (insulin receptor): 2% to 9%
DP22LysC: DP22 cleaved at the lysine of CTP to produce a two chain insulin (protein) chain 1: APPPSLPSPSRLPGPSDTPILPQEEEEERGPEHLCGAHLVDALYLVCGDRGFYSSSSRAPPPSLPSPSRLPGPSDTPILPQK chain 2: GIVDECCHRSCDLRRLENYCN |  |  | 3.71 nM | 0.385 nM | 0.39 ± 0.06 nM | 1.41 nM | 1.88 ± 0.52 nM | 23 nM | 58.8 nM | 29.7 nM | 
… AHLVDALYLVCGDRGFYGYGSSSRRAPQTGIVDECCHRSCDLRRLENYCN (protein, listed as Homo sapiens) MGSSSSKAPPPSLPSPSRLPGPSDTPILPQEEEEEKGPEHLCGAHLVDALYLVCGDRGFYGYGSSSRRAPQTGIVDECCHRSCDLRRLENYCN |  | potent insulin receptor agonists |  | 0.985 nM |  | 4.34 nM |  | 26.7 nM | 216 nM |  | 
DP22: CTP-E5R-B chain-CTP(K)-A Chain (SEQ ID NO: 91) (protein, single chain insulin analog) MGSSSSKAPPPSLPSPSRLPGPSDTPILPQEEEEERGPEHLCGAHLVDALYLVCGDRGFYSSSSRAPPPSLPSPSRLPGPSDTPILPQKGIVDECCHRSCDLRRLENYCN |  |  | 16.4 nM | 1.25 nM | 0.97 ± 0.17 nM | 11.3 nM | 18.3 ± 10.3 nM | 269 nM | 438 nM | 431 nM | 
GEEEEEKGPEHLCGAHLVDALYLVCGDRGFYSSSSRAPPPSLPSPSRLPGPSD TPILPQKGIVDECCHRSCDLRRLENYCN (protein, listed as Homo sapiens) GEEEEEKGPEHLCGAHLVDALYLVCGDRGFYSSSSRAPPPSLPSPSRLPGPSDTPILPQKGIVDECCHRSCDLRRLENYCN |  | potent insulin receptor agonists | 5.44 nM |  | 0.8 ± 0.2 nM | 4.83 nM | 10.6 ± 5.06 nM | 379 nM | 36.9 nM | 146 nM | in vitro phosphorylation activity at the insulin subtype A receptor (result in words) ([2]; FIGS. 21, 23): nearly equivalent to native hormone; IC50 ([2]; read-out: Phosphorylation at Insulin Receptor Subtype A (IC50), Table 16A): 3.12 nM; IC50 ([3]; read-out: Phosphorylation at Insulin Receptor Subtype B (IC50), Table 16B): 1.05 nM

From patent US9573987B2 (priority 2011, dated 2017)
